Reference: the supplement of paper PMC11136658

System: peptide library, one residue held at a place counted from the Y acceptor
Assay: relative phosphorylation of the sub-library (ratio to the mean residue at this position); higher = residue favoured
Outline: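 Every value reflects phosphorylation relative to the mean randomized residue. The sum of the 18 randomized residues, or 16 in the Ser/Thr-free library, served to normalize intensities at each position, which were then multiplied by that number. Intensities came from phosphorimaging with ImageQuant of biotinylated Tyr-centred peptides captured on streptavidin membranes after 90 min with purified recombinant kinases and 50 μM ATP plus γ-32P-ATP.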

Chain of TNNI3K, construct: aa1-727, human (Q59H18 1-727, looked up): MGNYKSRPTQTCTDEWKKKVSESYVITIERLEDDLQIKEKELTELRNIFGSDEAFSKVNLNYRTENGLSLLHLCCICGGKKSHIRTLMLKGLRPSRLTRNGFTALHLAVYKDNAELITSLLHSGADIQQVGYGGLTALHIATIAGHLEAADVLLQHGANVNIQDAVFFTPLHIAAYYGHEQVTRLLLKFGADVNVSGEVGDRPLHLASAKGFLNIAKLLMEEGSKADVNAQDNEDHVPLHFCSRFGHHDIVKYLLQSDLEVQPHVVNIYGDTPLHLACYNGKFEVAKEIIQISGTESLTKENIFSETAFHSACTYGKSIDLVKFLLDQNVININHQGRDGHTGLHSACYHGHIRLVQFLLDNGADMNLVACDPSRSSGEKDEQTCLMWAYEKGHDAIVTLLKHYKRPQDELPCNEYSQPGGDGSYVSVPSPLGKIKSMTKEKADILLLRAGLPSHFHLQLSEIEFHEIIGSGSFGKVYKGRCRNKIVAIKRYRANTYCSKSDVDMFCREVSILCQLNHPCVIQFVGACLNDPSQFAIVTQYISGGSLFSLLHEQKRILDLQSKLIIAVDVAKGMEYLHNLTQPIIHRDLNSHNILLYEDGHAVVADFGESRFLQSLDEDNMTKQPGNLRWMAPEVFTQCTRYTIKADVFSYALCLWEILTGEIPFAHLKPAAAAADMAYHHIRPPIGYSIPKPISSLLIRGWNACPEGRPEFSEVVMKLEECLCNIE
Chain of TNK1, construct: aa106-390, human (Q13470 106-390, looked up): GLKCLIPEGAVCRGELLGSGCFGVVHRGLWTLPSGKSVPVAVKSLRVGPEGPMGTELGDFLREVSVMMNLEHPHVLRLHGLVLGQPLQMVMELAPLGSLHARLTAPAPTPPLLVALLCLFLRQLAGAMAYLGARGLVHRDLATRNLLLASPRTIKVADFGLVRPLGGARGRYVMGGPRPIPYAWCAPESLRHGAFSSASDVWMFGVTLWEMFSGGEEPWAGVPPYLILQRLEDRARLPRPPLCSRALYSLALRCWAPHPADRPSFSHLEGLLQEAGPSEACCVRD

TNK1, construct: aa106-390, human (from UniProt Q13470)
relative phosphorylation
Conditions | at +1 | at +2 | at +3 | at +4 | at +5 | at -1 | at -2 | at -3 | at -4 | at -5
A fixed | 1.56 | 0.82 | 0.743 | 0.902 | 0.977 | 0.86 | 1.01 | 0.962 | 1.07 | 1.08
D fixed | 0.25 | 0.328 | 0.335 | 0.714 | 0.594 | 0.276 | 0.529 | 0.641 | 0.78 | 0.845
E fixed | 0.386 | 0.471 | 0.268 | 0.706 | 0.558 | 0.277 | 0.576 | 0.606 | 0.8 | 0.737
F fixed | 1.09 | 1.28 | 1.87 | 1.25 | 1.1 | 1.01 | 0.762 | 0.95 | 0.886 | 0.885
G fixed | 0.859 | 0.527 | 0.82 | 0.965 | 1.11 | 0.924 | 1.39 | 1.26 | 1.32 | 1.24
H fixed | 1.12 | 0.884 | 1.24 | 1.1 | 0.947 | 1.64 | 1.14 | 1.09 | 1.01 | 1.1
I fixed | 1.05 | 1.43 | 1.27 | 0.73 | 0.857 | 0.809 | 0.627 | 0.571 | 0.807 | 0.849
K fixed | 1.2 | 1.09 | 0.728 | 1.25 | 1.23 | 1.59 | 1.41 | 1.43 | 1.29 | 1.37
L fixed | 1 | 1.23 | 1.21 | 0.892 | 0.997 | 0.825 | 0.678 | 0.784 | 0.963 | 0.904
M fixed | 1.05 | 1.36 | 1.16 | 1.11 | 1.13 | 0.927 | 0.681 | 0.84 | 0.941 | 0.934
N fixed | 0.602 | 0.876 | 0.627 | 0.959 | 0.978 | 0.898 | 1.22 | 1.1 | 0.936 | 1.03
P fixed | 0.544 | 0.843 | 0.976 | 1.15 | 1.53 | 1.18 | 1.36 | 1.33 | 1.44 | 1.26
Q fixed | 1.08 | 0.825 | 0.573 | 1.1 | 0.864 | 1.09 | 1.07 | 0.982 | 1.02 | 1.04
R fixed | 1.45 | 1.27 | 0.987 | 1.28 | 1.17 | 2.56 | 1.8 | 1.6 | 1.44 | 1.26
S fixed | 0.936 | 0.787 | 0.661 | 0.901 | 0.982 | 0.779 | 1.23 | 1.15 | 0.863 | 0.999
T fixed | 1.03 | 1.07 | 0.665 | 0.891 | 1.01 | 0.895 | 1.01 | 1.06 | 0.765 | 0.912
V fixed | 1.18 | 1.4 | 1.19 | 0.846 | 0.878 | 0.733 | 0.748 | 0.702 | 0.828 | 0.832
W fixed | 1.6 | 1.51 | 2.69 | 1.26 | 1.1 | 0.723 | 0.749 | 0.947 | 0.845 | 0.718
pThr fixed | 0.344 | 0.38 | 0.211 | 0.367 | 0.429 | 0.291 | 0.492 | 0.539 | 0.593 | 0.738
pTyr fixed | 0.725 | 0.413 | 0.326 | 0.454 | 0.485 | 0.538 | 0.594 | 0.733 | 0.791 | 0.812

TNK2, construct: aa110-476, human (from UniProt Q07912)
relative phosphorylation
Conditions | at +1 | at +2 | at +3 | at +4 | at +5 | at -1 | at -2 | at -3 | at -4 | at -5
A fixed | 2.37 | 1 | 0.658 | 1.04 | 1.1 | 0.664 | 1.24 | 1.03 | 1.2 | 1.13
D fixed | 0.799 | 0.461 | 0.257 | 0.749 | 1.13 | 0.346 | 0.917 | 0.791 | 0.737 | 0.812
E fixed | 1.01 | 0.72 | 0.202 | 0.835 | 1.03 | 0.323 | 1 | 0.671 | 0.743 | 0.783
F fixed | 0.716 | 1.39 | 1.03 | 0.929 | 1.22 | 0.934 | 0.737 | 0.901 | 1.05 | 0.971
G fixed | 1.5 | 0.489 | 0.492 | 1.71 | 1.08 | 0.562 | 1.25 | 1.18 | 1.23 | 1.47
H fixed | 0.684 | 0.724 | 0.513 | 1.01 | 0.897 | 1.59 | 1 | 0.972 | 1 | 1.05
I fixed | 0.759 | 1.25 | 3.15 | 0.888 | 0.904 | 1.64 | 0.74 | 0.744 | 0.767 | 0.834
K fixed | 0.587 | 0.915 | 0.316 | 0.774 | 0.694 | 1.3 | 0.894 | 1.07 | 1.2 | 1.12
L fixed | 0.684 | 0.964 | 2.32 | 0.742 | 1.15 | 1.73 | 0.694 | 0.911 | 0.779 | 0.787
M fixed | 1.37 | 1.03 | 1.07 | 1.02 | 0.97 | 1.26 | 0.69 | 0.924 | 0.89 | 0.815
N fixed | 0.613 | 0.755 | 0.359 | 0.903 | 0.836 | 0.7 | 1.03 | 1.04 | 0.958 | 0.996
P fixed | 0.233 | 1.26 | 0.881 | 1.55 | 1.16 | 0.809 | 1.69 | 1.36 | 1.3 | 1.22
Q fixed | 1.5 | 1.03 | 0.437 | 0.873 | 0.955 | 1.15 | 1.21 | 1.03 | 1.17 | 0.966
R fixed | 0.89 | 1.32 | 0.367 | 0.995 | 0.543 | 1.82 | 1.05 | 1.32 | 1.36 | 1.31
S fixed | 1.18 | 1.02 | 0.543 | 1.21 | 1.01 | 0.626 | 1.16 | 1.12 | 0.824 | 0.952
T fixed | 1.05 | 1.25 | 0.94 | 1.03 | 1.14 | 0.936 | 0.987 | 1.02 | 0.762 | 0.951
V fixed | 1.04 | 1.32 | 2.39 | 0.846 | 0.949 | 0.951 | 0.952 | 0.825 | 0.785 | 0.755
W fixed | 1.03 | 1.11 | 2.07 | 0.898 | 1.22 | 0.658 | 0.759 | 1.1 | 1.25 | 1.08
pThr fixed | 0.667 | 1.05 | 0.311 | 0.814 | 0.654 | 0.486 | 0.969 | 0.721 | 0.716 | 0.775
pTyr fixed | 0.727 | 2.16 | 0.495 | 0.959 | 1.03 | 0.669 | 0.714 | 0.904 | 0.888 | 1

TNNI3K, construct: aa1-727, human (from UniProt Q59H18)
relative phosphorylation
Conditions | at +1 | at +2 | at +3 | at +4 | at +5 | at -1 | at -2 | at -3 | at -4 | at -5
A fixed | 1.74 | 0.816 | 0.787 | 0.992 | 0.912 | 1.78 | 1.09 | 0.969 | 1.16 | 1.17
D fixed | 0.328 | 0.35 | 0.376 | 0.377 | 0.577 | 1.18 | 0.589 | 0.741 | 0.664 | 0.668
E fixed | 0.277 | 0.288 | 0.455 | 0.35 | 0.483 | 1.23 | 0.717 | 0.683 | 0.757 | 0.538
F fixed | 0.587 | 0.975 | 1.03 | 1.01 | 1.04 | 0.637 | 0.998 | 1.12 | 1.05 | 1.09
G fixed | 0.605 | 0.86 | 0.909 | 1.12 | 0.791 | 1.1 | 1.34 | 1.34 | 1.5 | 1.35
H fixed | 0.57 | 1.04 | 1.22 | 0.997 | 1.04 | 0.943 | 1.18 | 1.13 | 1.04 | 0.979
I fixed | 2.26 | 0.78 | 0.929 | 0.945 | 0.795 | 0.572 | 1.03 | 0.914 | 0.894 | 0.958
K fixed | 0.896 | 1.83 | 1.68 | 1.24 | 1.76 | 0.641 | 0.992 | 0.982 | 1.22 | 1.22
L fixed | 0.79 | 0.65 | 1.02 | 1.11 | 1.01 | 0.477 | 0.805 | 0.863 | 0.949 | 1.06
M fixed | 0.914 | 0.661 | 0.751 | 1.1 | 0.948 | 0.553 | 0.738 | 0.781 | 0.853 | 0.787
N fixed | 0.62 | 0.853 | 0.837 | 0.74 | 0.85 | 1.44 | 1.02 | 0.99 | 0.765 | 0.77
P fixed | 0.555 | 0.774 | 0.847 | 1.21 | 1.06 | 1.13 | 0.928 | 1.27 | 1.11 | 1.18
Q fixed | 0.746 | 0.978 | 1.13 | 0.952 | 0.861 | 1.24 | 1.05 | 0.815 | 0.925 | 0.808
R fixed | 1.23 | 2.79 | 2.39 | 1.73 | 1.98 | 0.687 | 1.4 | 1.07 | 1.25 | 1.21
V fixed | 2.88 | 0.736 | 0.835 | 0.979 | 0.83 | 0.701 | 0.996 | 1.05 | 0.947 | 0.98
W fixed | 0.784 | 1.39 | 0.892 | 1.27 | 1.08 | 0.579 | 1.11 | 1.37 | 1.27 | 1.46
pThr fixed | 0.215 | 0.234 | 0.259 | 0.263 | 0.44 | 0.253 | 0.593 | 0.715 | 0.515 | 0.622
pTyr fixed | 0.365 | 0.427 | 0.38 | 0.365 | 0.583 | 0.479 | 0.832 | 1.21 | 0.898 | 0.776
